The record followed here is the Human Domainome abundance scans (Beltran et al. 2025).

± gives the uncertainty stated by the source.

The labels stand for the following.
B1: REST corepressor 3, residues 87 to 134; numbered along this chain, Q9P2K3 (parent)
chain: DEWTVEDKVLFEQAFSFHGKSFHRIQQMLPDKTIASLVKYYYSWKKTR

In the data set the parent is B1. Description: abundance fitness (aPCA) (normalised: wild type 0, dead -1); higher = more abundant; growth selection in yeast, the domain comes from the species named. The conditions noted are these: Homo sapiens.
As for DEWTVEDKVLFEQAFSFHGKSFHRIQQMLPDKTIKSLVKYYYSWKKTR [A35K], the abundance fitness is -0.124 ± 0.14.

On to DEWTVEDKVLFEQAFSFHGKSFHRIQQRLPDKTIASLVKYYYSWKKTR [M28R], for which the abundance fitness is -0.618 ± 0.2. To DEWTVEDKVLFEQAFSFHGKSFHRIQQELPDKTIASLVKYYYSWKKTR [M28E] belongs -0.616 ± 0.3. To DEWTVEDKVLFEQAFMFHGKSFHRIQQMLPDKTIASLVKYYYSWKKTR [S16M] belongs -0.167 ± 0.26.

Consider DEWTVEDKVLFEQAFDFHGKSFHRIQQMLPDKTIASLVKYYYSWKKTR [S16D], for which the abundance fitness was 0.149 ± 0.12. Next, DEWTVEDKVLFEQAFGFHGKSFHRIQQMLPDKTIASLVKYYYSWKKTR [S16G]: -0.081 ± 0.1. For DEWTVEDKVLFEQAFKFHGKSFHRIQQMLPDKTIASLVKYYYSWKKTR [S16K], the abundance fitness is -0.22 ± 0.26. With DEWTVEDKVLFEDAFSFHGKSFHRIQQMLPDKTIASLVKYYYSWKKTR [Q13D], the abundance fitness is -0.644 ± 0.46. On to DEWTVEDKVLFEEAFSFHGKSFHRIQQMLPDKTIASLVKYYYSWKKTR [Q13E], for which the abundance fitness is -0.288 ± 0.2. Regarding DEWTVEDKVLFEQAFSFHGKSFHRIQQMLPDKTIASLVKYYYKWKKTR [S43K], the abundance fitness came to 0.134 ± 0.28. To DEWTVEDKVLFEQAFSFHGKSFHRIQQMLPDKTIASLVKYYYCWKKTR [S43C] belongs -0.027 ± 0.16. Next, DEWTVEDKVLFEQAFSFHGKSFHRIQQMLPDKTIASLVKYYYVWKKTR [S43V]: -0.076 ± 0.046; DEWTVEDKVLFEQAFSFHGKSFHRIQQMLPDKTIASLVKYYYRWKKTR [S43R]: 0.021 ± 0.052; DELTVEDKVLFEQAFSFHGKSFHRIQQMLPDKTIASLVKYYYSWKKTR [W3L]: -0.858 ± 0.4. On to DEVTVEDKVLFEQAFSFHGKSFHRIQQMLPDKTIASLVKYYYSWKKTR [W3V], for which the abundance fitness is -0.677 ± 0.23. DECTVEDKVLFEQAFSFHGKSFHRIQQMLPDKTIASLVKYYYSWKKTR [W3C]: the abundance fitness is -0.776 ± 0.32.

As to DESTVEDKVLFEQAFSFHGKSFHRIQQMLPDKTIASLVKYYYSWKKTR [W3S], the abundance fitness was -0.651 ± 0.38.

Consider DEITVEDKVLFEQAFSFHGKSFHRIQQMLPDKTIASLVKYYYSWKKTR [W3I], for which the abundance fitness is -0.465 ± 0.46. Next, DEGTVEDKVLFEQAFSFHGKSFHRIQQMLPDKTIASLVKYYYSWKKTR [W3G]: -0.912 ± 0.33; DEWTVEDKVLFEQAFSFHGKSFHRIQQMCPDKTIASLVKYYYSWKKTR [L29C]: -0.795 ± 0.46. Turning to DEWTVEDKVLFEQAFSFHGKSFHRIQQMRPDKTIASLVKYYYSWKKTR [L29R], the abundance fitness was -0.771 ± 0.24. As to DEWTVEDKVLFEQAFSFHGKSFHRIQQMKPDKTIASLVKYYYSWKKTR [L29K], the abundance fitness is -0.645 ± 0.44. On to DEWTVEDKVLFEQAFSFHGKSFHRIQQMLPDKPIASLVKYYYSWKKTR [T33P], for which the abundance fitness is 0.275 ± 0.1. With DEWTVEDKVLFEQAFSFHGKSFHRIQQMLPDKGIASLVKYYYSWKKTR [T33G], the abundance fitness is -0.265 ± 0.1. With DEWTVEDKVLFEQAFSFHGKSFHRIQQMLPDKLIASLVKYYYSWKKTR [T33L], the abundance fitness was -0.686 ± 0.19. On to DEWTVEDKVLFEQAFSFHGKSFHRIQQMLPDKHIASLVKYYYSWKKTR [T33H], for which the abundance fitness is -0.781 ± 0.36.

Turning to DEWTVEPKVLFEQAFSFHGKSFHRIQQMLPDKTIASLVKYYYSWKKTR [D7P], the abundance fitness was -0.411 ± 0.4. As for DEWTVEVKVLFEQAFSFHGKSFHRIQQMLPDKTIASLVKYYYSWKKTR [D7V], the abundance fitness is -0.687 ± 0.21. To DEWTVEYKVLFEQAFSFHGKSFHRIQQMLPDKTIASLVKYYYSWKKTR [D7Y] belongs -0.686 ± 0.45. To DEWGVEDKVLFEQAFSFHGKSFHRIQQMLPDKTIASLVKYYYSWKKTR [T4G] belongs -0.84 ± 0.28; to DEWTVFDKVLFEQAFSFHGKSFHRIQQMLPDKTIASLVKYYYSWKKTR [E6F], -0.542 ± 0.43. As for DEWTVEDKVLFEQAFSFHGKSFQRIQQMLPDKTIASLVKYYYSWKKTR [H23Q], the abundance fitness is -0.258 ± 0.25. In the case of DEWTVEDKVLFEQAFSFHGKSFKRIQQMLPDKTIASLVKYYYSWKKTR [H23K], the abundance fitness came out at 0.381 ± 0.2. DEWTVEDKVLFEQAFSFHGKSFVRIQQMLPDKTIASLVKYYYSWKKTR [H23V]: the abundance fitness was -0.3 ± 0.15. DEWTVEDKVLFEQAFSFHGKSWHRIQQMLPDKTIASLVKYYYSWKKTR [F22W]: the abundance fitness stood at 0.52 ± 0.099. Next, DEWTVEDKVLFEQAFSFHGKSAHRIQQMLPDKTIASLVKYYYSWKKTR [F22A]: -0.692 ± 0.23; DEWTVEDKVLFEQAFSFHGKSRHRIQQMLPDKTIASLVKYYYSWKKTR [F22R]: -1.07 ± 0.27. On to DEWTVEDKVLFEQAFSFHGKSFHRAQQMLPDKTIASLVKYYYSWKKTR [I25A], for which the abundance fitness was -0.567 ± 0.2.

For the variant DEWTVEDKVLFEQAFSFHGKSFHRVQQMLPDKTIASLVKYYYSWKKTR [I25V], the abundance fitness is -0.74 ± 0.2. Consider DEWTVEDKVLFEQAFSFHGKSFHRGQQMLPDKTIASLVKYYYSWKKTR [I25G], for which the abundance fitness is -0.903 ± 0.3. DEWTVEDKVLFEQAFSFHGKSFHRSQQMLPDKTIASLVKYYYSWKKTR [I25S]: the abundance fitness is -0.945 ± 0.34. To DEWTVEDKYLFEQAFSFHGKSFHRIQQMLPDKTIASLVKYYYSWKKTR [V9Y] belongs -0.581 ± 0.3; to DEWTVEDKGLFEQAFSFHGKSFHRIQQMLPDKTIASLVKYYYSWKKTR [V9G], -0.17 ± 0.13.

In the case of DEWTVEDKDLFEQAFSFHGKSFHRIQQMLPDKTIASLVKYYYSWKKTR [V9D], the abundance fitness is -0.258 ± 0.2. Next, DEWTVEDKVLFEQAFSFHGKSFHRIQQMLPPKTIASLVKYYYSWKKTR [D31P]: -0.621 ± 0.33; DEWTVEDKVLFEQAFSFHGKSFHRIQQMLPGKTIASLVKYYYSWKKTR [D31G]: 0.029 ± 0.073; DEWTVEDKVLFEQAFSFHGKSFHRIQQMLPDKTIASLVKYIYSWKKTR [Y41I]: -0.599 ± 0.44. Next, DEWTVEDKVLFEQAFSFHGKSFHRIQQMLPDKTIASLVKYRYSWKKTR [Y41R]: -0.654 ± 0.44. To DEWTVEDKVLFEQAFSFHGKSFHRIQQMLPDKTIASLVKYAYSWKKTR [Y41A] belongs -0.817 ± 0.38.

In the case of GEWTVEDKVLFEQAFSFHGKSFHRIQQMLPDKTIASLVKYYYSWKKTR [D1G], the abundance fitness is 0.138 ± 0.13. Next, DEWTVEDKVLFEQAFSFVGKSFHRIQQMLPDKTIASLVKYYYSWKKTR [H18V]: -0.974 ± 0.44. To DEWTVEDKVLFEQAFSFSGKSFHRIQQMLPDKTIASLVKYYYSWKKTR [H18S] belongs -0.706 ± 0.35. To DEWTVEDKVLFEQAFSFQGKSFHRIQQMLPDKTIASLVKYYYSWKKTR [H18Q] belongs -0.895 ± 0.45; to DEWTVEDKVLFEQAFSFHGKSFHRIQSMLPDKTIASLVKYYYSWKKTR [Q27S], -0.482 ± 0.16.
